Holding throughout (test): TAP purification of tagged bait from yeast, trypsin digestion, mass spectrometric identification of co-purified proteins
Experiment [1] addresses Fmp24 (Saccharomyces cerevisiae) (UniProt Q04472).
Experiment [2] has as its target Gut2 (Saccharomyces cerevisiae) (UniProt P32191).
For experiment [3], the target named is Mpc3 (S. cerevisiae, encoded by YGR243W) (S. cerevisiae) (UniProt P53311).
In experiment [4] the target is Mpm1 (Saccharomyces cerevisiae) (UniProt P40364).
Chain of Mpm1 (Saccharomyces cerevisiae) (P40364 whole entry): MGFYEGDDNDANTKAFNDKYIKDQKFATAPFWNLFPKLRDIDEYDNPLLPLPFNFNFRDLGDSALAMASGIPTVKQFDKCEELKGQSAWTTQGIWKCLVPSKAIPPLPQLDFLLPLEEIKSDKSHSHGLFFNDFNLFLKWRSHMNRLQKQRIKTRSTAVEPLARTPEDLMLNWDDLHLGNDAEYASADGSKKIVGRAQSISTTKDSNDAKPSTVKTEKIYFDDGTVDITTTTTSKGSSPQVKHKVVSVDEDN
Experiment [5] concerns the target Cor1 (Saccharomyces cerevisiae) (UniProt P07256).
Experiment [6] deals with Md12 (Saccharomyces cerevisiae) (UniProt P33311).
Chain of Md12 (Saccharomyces cerevisiae) (P33311 91-773 limits assumed): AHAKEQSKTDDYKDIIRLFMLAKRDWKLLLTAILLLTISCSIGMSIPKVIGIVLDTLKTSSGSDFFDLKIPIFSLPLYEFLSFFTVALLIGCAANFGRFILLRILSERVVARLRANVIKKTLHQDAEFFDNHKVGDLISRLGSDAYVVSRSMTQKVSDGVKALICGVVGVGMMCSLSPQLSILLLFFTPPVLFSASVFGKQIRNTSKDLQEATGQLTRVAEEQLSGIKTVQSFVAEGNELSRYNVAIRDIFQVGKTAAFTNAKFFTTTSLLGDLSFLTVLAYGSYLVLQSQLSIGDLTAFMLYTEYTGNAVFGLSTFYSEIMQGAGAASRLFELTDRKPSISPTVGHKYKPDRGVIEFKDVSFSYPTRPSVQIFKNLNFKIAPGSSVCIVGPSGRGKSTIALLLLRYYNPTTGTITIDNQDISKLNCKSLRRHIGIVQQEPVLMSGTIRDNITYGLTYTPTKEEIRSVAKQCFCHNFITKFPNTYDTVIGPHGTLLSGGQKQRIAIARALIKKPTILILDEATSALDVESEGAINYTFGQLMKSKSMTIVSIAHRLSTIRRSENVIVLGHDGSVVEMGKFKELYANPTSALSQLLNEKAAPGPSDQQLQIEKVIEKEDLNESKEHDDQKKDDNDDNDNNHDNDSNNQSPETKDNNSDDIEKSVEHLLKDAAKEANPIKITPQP
Experiment [7] addresses Nde1 (Saccharomyces cerevisiae) (UniProt P40215).
Experiment [8] concerns the target Qcr2 (Saccharomyces cerevisiae) (UniProt P07257).

Chain of Gut2 (Saccharomyces cerevisiae) (P32191 whole entry): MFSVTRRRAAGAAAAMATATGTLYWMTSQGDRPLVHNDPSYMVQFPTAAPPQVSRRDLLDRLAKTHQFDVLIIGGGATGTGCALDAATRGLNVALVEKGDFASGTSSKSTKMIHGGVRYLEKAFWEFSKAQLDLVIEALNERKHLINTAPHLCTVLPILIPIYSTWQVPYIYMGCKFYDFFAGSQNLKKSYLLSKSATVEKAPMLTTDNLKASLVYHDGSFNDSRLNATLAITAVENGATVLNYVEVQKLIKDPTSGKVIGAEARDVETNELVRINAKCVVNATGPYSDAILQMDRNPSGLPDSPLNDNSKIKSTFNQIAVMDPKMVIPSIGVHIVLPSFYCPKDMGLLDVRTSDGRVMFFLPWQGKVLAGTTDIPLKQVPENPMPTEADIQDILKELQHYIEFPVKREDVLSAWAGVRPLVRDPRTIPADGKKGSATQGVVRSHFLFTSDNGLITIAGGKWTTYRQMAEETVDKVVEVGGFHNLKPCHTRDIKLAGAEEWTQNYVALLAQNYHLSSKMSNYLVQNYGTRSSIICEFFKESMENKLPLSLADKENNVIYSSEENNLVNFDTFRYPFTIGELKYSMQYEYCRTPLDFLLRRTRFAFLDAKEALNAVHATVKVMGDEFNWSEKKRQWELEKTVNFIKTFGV
Chain of Nde1 (Saccharomyces cerevisiae) (P40215 42-560 limits assumed): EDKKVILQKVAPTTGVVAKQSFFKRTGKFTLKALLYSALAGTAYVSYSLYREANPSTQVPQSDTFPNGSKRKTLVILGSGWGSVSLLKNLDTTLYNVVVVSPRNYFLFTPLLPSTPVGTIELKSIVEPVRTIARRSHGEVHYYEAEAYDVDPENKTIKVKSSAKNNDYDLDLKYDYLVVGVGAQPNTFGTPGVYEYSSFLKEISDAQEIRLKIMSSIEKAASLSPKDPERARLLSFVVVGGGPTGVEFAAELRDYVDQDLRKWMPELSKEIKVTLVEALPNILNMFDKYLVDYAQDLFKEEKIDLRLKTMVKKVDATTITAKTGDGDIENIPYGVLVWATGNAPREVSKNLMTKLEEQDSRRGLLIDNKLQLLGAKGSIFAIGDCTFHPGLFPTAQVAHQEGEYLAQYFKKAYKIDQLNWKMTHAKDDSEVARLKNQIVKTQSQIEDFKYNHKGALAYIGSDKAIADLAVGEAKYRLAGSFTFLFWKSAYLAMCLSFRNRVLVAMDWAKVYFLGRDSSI
Chain of Fmp24 (Saccharomyces cerevisiae) (Q04472 whole entry): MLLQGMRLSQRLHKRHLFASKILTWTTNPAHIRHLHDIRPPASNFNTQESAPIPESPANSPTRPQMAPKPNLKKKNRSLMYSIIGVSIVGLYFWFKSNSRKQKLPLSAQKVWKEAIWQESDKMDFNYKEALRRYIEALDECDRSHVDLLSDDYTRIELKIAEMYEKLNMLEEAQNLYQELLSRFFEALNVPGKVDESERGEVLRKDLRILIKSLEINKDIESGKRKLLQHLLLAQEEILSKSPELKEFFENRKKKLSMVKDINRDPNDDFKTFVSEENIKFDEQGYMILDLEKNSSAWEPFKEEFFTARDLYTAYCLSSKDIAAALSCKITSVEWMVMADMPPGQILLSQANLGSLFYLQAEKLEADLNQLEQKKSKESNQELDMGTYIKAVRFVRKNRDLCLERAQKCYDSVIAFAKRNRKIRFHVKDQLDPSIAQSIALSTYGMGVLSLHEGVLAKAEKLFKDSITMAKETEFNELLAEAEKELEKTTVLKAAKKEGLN
Chain of Qcr2 (Saccharomyces cerevisiae) (P07257 17-368 limits assumed): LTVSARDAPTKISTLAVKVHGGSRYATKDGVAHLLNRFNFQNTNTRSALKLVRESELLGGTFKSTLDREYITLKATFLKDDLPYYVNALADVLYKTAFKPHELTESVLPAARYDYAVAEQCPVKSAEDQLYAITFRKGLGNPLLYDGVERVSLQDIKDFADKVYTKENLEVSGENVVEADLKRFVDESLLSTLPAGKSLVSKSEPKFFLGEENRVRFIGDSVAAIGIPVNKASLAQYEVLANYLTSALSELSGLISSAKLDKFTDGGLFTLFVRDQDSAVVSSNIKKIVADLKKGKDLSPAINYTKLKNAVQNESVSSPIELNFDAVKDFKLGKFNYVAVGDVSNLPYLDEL
Chain of Cor1 (Saccharomyces cerevisiae) (P07256 27-457 limits assumed): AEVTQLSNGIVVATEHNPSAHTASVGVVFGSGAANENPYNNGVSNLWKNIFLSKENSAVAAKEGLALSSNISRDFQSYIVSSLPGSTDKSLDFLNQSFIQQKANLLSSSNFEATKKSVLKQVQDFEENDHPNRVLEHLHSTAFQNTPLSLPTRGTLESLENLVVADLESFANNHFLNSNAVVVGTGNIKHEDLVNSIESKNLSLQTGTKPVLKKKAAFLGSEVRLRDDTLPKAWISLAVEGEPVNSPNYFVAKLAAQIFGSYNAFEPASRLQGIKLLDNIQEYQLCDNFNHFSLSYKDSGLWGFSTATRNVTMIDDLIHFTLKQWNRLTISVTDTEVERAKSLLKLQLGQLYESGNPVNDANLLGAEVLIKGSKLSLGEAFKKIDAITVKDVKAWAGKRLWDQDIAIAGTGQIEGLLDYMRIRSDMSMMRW

Regarding “Mpc1-His6/HA2 (from UniProt P53157 1-130)”, the PSMs in experiment [1] was determined as 4 PSMs; in experiment [2], 7 PSMs; in experiment [3] it was 5 PSMs; in experiment [4], 7 PSMs.

“Mpc2, tagged variant used for TAP purification (from UniProt P38857 1-129)”: the PSMs amounted to 5 PSMs in experiment [5]; 4 PSMs in experiment [2]; 28 PSMs in experiment [6]; 5 PSMs in experiment [3]; 6 PSMs in experiment [7]; 3 PSMs in experiment [8].

Source of the values: patent US20150099790A1.
